The assay concerns the target H2-D^b (mouse MHC I heavy chain ectodomain) refolded with human β2-microglobulin (mouse | human). The experiment in a line: FP.

As a reminder, the koff is the first-order rate constant of dissociation. Lower therefore signals slow dissociation.

Ends that are not written are not given here.

ASNC(TAMRA)NMETM [ASNC*NMETM (fluorescently labeled high-affinity peptide for H2-D^b)] had a koff of 0.00035 s⁻¹.
